We go through five molecules from paper PMC2275084.

Data set [1] concerns the target T1, C598 (Tetrahymena thermophila, UniProt O77448 520-1117).
T1 sequence: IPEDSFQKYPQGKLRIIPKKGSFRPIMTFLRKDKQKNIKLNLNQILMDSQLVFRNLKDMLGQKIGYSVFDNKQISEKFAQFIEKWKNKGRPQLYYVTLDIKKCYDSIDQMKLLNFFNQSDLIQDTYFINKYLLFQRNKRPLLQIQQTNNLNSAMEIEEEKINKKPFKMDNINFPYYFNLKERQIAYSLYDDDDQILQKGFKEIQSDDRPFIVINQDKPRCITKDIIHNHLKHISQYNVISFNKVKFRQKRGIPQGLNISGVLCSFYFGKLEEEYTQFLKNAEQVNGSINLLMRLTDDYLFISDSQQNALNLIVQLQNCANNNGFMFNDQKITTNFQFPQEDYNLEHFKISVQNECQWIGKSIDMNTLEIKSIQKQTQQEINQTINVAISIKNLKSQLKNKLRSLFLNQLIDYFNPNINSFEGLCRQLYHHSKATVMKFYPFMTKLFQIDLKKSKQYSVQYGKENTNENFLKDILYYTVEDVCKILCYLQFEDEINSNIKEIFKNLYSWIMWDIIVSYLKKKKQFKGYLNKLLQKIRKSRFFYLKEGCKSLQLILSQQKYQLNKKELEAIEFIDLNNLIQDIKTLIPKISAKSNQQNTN
The data set is described as follows: UV crosslinking.

For data set [2], the target named is T2, N519 (Tetrahymena thermophila, UniProt O77448 1-519).
T2 sequence: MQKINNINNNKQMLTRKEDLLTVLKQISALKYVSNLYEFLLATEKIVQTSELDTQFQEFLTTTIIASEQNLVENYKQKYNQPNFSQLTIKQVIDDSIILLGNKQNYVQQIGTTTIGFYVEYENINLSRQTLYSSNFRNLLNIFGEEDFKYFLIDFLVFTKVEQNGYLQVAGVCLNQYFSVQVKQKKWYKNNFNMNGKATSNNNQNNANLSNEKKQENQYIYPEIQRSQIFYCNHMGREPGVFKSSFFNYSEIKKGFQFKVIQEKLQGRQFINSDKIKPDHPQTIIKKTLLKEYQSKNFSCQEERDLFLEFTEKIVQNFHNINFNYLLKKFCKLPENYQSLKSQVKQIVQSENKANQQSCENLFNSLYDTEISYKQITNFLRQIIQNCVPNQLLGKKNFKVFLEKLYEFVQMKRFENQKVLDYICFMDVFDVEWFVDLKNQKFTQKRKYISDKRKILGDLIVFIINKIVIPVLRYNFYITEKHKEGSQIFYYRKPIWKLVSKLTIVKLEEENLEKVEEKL
The data set is described as follows: UV crosslinking.

In data set [3] the target is T3, TEN domain (E. coli) (Tetrahymena thermophila, UniProt O77448 2-191).
T3 sequence: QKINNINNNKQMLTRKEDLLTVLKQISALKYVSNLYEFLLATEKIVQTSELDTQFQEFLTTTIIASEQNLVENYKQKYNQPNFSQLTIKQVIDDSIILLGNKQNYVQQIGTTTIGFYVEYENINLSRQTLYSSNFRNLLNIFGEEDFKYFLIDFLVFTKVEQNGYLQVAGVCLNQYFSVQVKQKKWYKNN
Put plainly: UV crosslinking.

In data set [4] the target is T4, TEN domain (in vitro translated) (Tetrahymena thermophila, UniProt O77448 2-191).
T4 sequence: T3 sequence
The data set is described as follows: NeutrAvidin pull-down.

In data set [5] the target is T2, N519. The data set is described as follows: NeutrAvidin pull-down.
Data set [6] concerns the target T5, TERT deltaC233 (Tetrahymena thermophila, UniProt O77448 1-884).
T5 sequence: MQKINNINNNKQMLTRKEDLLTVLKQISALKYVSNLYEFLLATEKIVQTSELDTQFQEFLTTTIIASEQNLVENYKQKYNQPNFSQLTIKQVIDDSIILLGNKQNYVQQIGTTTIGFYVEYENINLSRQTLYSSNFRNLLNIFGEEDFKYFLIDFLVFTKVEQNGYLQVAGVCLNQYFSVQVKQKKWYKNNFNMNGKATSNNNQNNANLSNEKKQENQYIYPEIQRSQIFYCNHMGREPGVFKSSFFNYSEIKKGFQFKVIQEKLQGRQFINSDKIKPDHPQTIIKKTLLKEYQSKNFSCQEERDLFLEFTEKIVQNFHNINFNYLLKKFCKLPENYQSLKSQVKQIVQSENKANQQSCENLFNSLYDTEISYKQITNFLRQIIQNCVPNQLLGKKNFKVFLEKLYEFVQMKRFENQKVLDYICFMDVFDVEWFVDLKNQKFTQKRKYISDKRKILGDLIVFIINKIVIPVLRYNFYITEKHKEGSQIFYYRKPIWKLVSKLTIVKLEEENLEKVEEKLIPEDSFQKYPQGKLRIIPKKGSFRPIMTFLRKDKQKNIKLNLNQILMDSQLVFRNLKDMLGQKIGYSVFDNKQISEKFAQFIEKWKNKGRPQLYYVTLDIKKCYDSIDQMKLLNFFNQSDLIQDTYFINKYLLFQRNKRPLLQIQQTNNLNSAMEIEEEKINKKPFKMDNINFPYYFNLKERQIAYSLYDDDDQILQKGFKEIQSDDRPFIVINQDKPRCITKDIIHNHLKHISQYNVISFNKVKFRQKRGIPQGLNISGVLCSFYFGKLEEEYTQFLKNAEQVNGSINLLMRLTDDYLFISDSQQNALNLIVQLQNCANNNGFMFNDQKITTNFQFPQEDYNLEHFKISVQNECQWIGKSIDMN
The data set is described as follows: NeutrAvidin pull-down.

Data set [7] has as its target T6, TERT deltaTEN (Tetrahymena thermophila, UniProt O77448 192-1117).
T6 sequence: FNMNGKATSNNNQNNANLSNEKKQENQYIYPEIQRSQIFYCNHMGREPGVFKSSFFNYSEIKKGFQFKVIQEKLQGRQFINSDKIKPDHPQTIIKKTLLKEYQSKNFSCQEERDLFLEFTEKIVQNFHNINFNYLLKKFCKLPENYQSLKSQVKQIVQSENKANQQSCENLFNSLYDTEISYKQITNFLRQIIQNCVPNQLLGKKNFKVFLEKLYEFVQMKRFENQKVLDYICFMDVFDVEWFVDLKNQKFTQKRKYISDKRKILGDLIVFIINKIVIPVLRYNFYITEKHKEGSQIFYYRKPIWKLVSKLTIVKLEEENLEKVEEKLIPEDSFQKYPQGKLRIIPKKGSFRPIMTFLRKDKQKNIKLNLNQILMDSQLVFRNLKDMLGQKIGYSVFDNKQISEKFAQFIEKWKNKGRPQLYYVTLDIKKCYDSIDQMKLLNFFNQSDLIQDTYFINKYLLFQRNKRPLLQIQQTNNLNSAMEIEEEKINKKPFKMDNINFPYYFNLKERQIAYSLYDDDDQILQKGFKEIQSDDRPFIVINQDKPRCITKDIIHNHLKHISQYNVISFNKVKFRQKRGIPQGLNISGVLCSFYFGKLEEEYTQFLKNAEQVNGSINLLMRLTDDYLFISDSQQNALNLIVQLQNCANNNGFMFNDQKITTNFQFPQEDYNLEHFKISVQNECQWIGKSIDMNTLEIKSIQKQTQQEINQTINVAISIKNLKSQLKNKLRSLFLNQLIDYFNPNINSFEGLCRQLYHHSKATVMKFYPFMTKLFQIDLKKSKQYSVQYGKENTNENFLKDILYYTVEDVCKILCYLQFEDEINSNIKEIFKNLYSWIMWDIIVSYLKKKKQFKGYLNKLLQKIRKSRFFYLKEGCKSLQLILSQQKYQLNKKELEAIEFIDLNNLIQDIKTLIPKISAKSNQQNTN
The data set is described as follows: NeutrAvidin pull-down.

B1: I(19)20GTT (ssDNA)
DNA: TTGGGGTTGGGGTTGGGGUT
modifications: 5-iodo-dU at position 19
As to B1, the binding result in data set [1], in data set [2] and in data set [3] was “binds” in each case.

B2: I(1)20GTT (ssDNA)
DNA: UTGGGGTTGGGGTTGGGGTT
modifications: 5-iodo-dU at position 1
Regarding B2, the binding result in data set [1] and in data set [2] was “binds” throughout.

B3: I(13)20GTT (ssDNA)
DNA: TTGGGGTTGGGGUTGGGGTT
modifications: 5-iodo-dU at position 13
Turning to B3, the binding result in data set [1], in data set [2] and in data set [3] was “binds” each time.

B4: I(7)20GTT (ssDNA)
DNA: TTGGGGUTGGGGTTGGGGTT
modifications: 5-iodo-dU at position 7
With B4, the binding result in data set [1], in data set [2] and in data set [3] was “binds” each time.

B5: Bio-18GTT (ssDNA)
DNA: GGGGTTGGGGTTGGGGTT
modifications: 5' biotin
B5: the binding result in data set [4] is “no binding”. For the same molecule, the results for the binding signal in data set [5], in data set [6] and in data set [7] were ~6 fold lower affinity than full-length TERT, ~4 fold higher Kd than full-length TERT and ~4 fold higher Kd than full-length TERT, respectively.
